Article PMC2757994 (The Journal of Biological Chemistry, 2009)

Molecular target: the molecule itself
Experiment: SEC-MALS

B1: fibulin 5 fragment, residues 120–333 (cbEGFs 2–6) (domain or fragment, UniProt Q9UBX5 120-333, looked up)
chain: DESNQCVDVDECATDSHQCNPTQICINTEGGYTCSCTDGYWLLEGQCLDIDECRYGYCQQLCANVPGSYSCTCNPGFTLNEDGRSCQDVNECATENPCVQTCVNTYGSFICRCDPGYELEEDGVHCSDMDECSFSEFLCQHECVNQPGTYFCSCPPGYILLDDNRSCQDINECEHRNHTCNLQQTCYNLQGGFKCIDPIRCEEPYLRISDNRCM
modifications: N-glycosylated by the EBNA 293 cells (potential N-linked sites at residues 283 and 296)
Question: How did the “stoichiometry N” value turn out when B1 was run?
Answer: The value was 2.
